This note sets out measurements from publication PMC7429481 (British Journal of Pharmacology, 2020).

For assay [1], the target named is T1, human SNAP‐GLP‐1 receptor (Homo sapiens, UniProt P43220). Nature of the assay: cAMP by HTRF in HEK293‐SNAP‐GLP‐1 receptor cells. Type of assay: cell-based. Conditions: 30 min incubation, n = 5. Background: In TR-FRET formats the signal depends on donor and acceptor labels being close together.
Method: Cells were stimulated with agonist for the indicated period in their respective growth mediums without FBS. […] At the end of the incubation period, cells were lysed and cAMP was determined by HTRF (cAMP Dynamic 2 kit, Cisbio) using a Spectramax i3x plate reader (Molecular Devices).
The target of assay [2] is T1, human SNAP‐GLP‐1 receptor. Nature of the assay: GLP‐1 receptor recycling by TR‐FRET in CHO‐K1‐SNAP‐GLP‐1 receptor cells. Type of assay: cell-based. Conditions: H89 10 μM, exendin‐4 100 nM 30 min, n = 5.

T1 sequence (P43220 24-463): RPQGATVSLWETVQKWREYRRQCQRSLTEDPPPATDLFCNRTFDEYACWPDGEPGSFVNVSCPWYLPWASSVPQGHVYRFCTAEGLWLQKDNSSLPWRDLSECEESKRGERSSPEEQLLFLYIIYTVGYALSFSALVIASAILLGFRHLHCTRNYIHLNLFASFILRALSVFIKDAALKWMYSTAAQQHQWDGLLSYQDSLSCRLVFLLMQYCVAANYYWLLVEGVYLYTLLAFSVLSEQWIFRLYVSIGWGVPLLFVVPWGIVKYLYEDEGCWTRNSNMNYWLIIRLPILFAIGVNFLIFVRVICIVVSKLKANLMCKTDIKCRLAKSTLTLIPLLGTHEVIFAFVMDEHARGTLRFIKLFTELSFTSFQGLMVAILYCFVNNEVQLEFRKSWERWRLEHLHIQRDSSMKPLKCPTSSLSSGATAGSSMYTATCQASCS

Turning to “lixisenatide‐FITC: FITC‐conjugate of lixisenatide”, the “cAMP signalling potency of FITC conjugate” value in assay [1] was “reduced cAMP signalling potency”.
In the case of `O=S(=O)(NCCNC/C=C/c1ccc(Br)cc1)c1cccc2cnccc12` [H89], in assay [2], the “effect on GLP‐1 receptor recycling after exendin‐4 pretreatment” value was “did not affect”.
